Experimental data as given in patent publication US20250074943A1, “DLL3 BINDING PEPTIDES AND USES THEREOF” (AMGEN INC., priority 2021, published 2025).

Experiments:
[1] = molecular target: rat DLL3 expressed on CHO cells (rat) (UniProt O88671); experiment: flow cytometry, 10 ug/ml AMG 757 on High CHO rtDLL3 cells, anti-human IgG Fc-APC
[2] = molecular target: human FLT3 expressed on CHO cells (human) (UniProt P36888); experiment: flow cytometry, 10 ug/ml AMG 757 on CHO huFTL3 (negative control) cells, anti-human IgG Fc-APC
[3] = molecular target: cynomolgus monkey DLL3 expressed on CHO cells (cynomolgus monkey); experiment: flow cytometry, 10 ug/ml AMG 757 on CHO cynoDLL3 cells, anti-human IgG Fc-APC
Chain of cynomolgus monkey DLL3 expressed on CHO cells (cynomolgus monkey) (chain, as listed by the source, form in doubt): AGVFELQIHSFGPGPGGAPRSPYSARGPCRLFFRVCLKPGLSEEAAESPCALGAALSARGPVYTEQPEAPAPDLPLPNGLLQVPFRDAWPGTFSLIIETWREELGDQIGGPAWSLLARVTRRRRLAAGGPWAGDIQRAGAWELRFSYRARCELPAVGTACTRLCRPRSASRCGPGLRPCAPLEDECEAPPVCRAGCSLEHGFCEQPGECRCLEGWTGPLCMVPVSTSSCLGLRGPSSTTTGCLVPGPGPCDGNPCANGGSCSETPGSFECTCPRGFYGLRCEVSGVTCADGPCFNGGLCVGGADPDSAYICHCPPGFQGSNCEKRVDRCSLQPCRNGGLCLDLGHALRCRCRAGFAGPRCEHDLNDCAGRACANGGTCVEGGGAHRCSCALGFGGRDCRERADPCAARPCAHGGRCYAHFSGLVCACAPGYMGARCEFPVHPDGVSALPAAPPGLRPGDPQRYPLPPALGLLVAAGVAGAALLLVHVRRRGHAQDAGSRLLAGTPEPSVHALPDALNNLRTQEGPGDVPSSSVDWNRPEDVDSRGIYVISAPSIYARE

[4] = molecular target: human DLL3 expressed on the surface of cells (human) (UniProt Q9NYJ7); experiment: flow cytometry, 10 ug/ml AMG 757 on CHO huDLL3 cells, anti-human IgG Fc-APC
Chain of human DLL3 expressed on the surface of cells (human) (Q9NYJ7 27-618 limits assumed): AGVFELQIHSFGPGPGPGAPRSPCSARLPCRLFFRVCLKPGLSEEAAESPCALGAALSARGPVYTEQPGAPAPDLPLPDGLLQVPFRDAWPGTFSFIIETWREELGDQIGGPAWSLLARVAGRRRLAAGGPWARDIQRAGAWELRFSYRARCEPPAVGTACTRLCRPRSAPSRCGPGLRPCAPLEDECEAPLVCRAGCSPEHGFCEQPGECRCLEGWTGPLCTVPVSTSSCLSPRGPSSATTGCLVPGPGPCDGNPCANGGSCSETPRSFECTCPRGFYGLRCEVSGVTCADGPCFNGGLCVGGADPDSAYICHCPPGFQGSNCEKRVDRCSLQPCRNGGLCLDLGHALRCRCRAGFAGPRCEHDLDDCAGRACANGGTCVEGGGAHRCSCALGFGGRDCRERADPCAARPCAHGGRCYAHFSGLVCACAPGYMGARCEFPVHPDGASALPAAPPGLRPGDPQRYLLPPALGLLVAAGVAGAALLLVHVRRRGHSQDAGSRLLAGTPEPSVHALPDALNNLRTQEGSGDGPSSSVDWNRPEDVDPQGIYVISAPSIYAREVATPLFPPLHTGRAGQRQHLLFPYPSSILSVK

[5] = molecular target: mouse DLL3 expressed on CHO cells (mouse) (UniProt O88516); experiment: flow cytometry, 10 ug/ml AMG 757 on CHO muDLL3 cells, anti-human IgG Fc-APC
Chain of mouse DLL3 expressed on CHO cells (mouse) (O88516 33-592): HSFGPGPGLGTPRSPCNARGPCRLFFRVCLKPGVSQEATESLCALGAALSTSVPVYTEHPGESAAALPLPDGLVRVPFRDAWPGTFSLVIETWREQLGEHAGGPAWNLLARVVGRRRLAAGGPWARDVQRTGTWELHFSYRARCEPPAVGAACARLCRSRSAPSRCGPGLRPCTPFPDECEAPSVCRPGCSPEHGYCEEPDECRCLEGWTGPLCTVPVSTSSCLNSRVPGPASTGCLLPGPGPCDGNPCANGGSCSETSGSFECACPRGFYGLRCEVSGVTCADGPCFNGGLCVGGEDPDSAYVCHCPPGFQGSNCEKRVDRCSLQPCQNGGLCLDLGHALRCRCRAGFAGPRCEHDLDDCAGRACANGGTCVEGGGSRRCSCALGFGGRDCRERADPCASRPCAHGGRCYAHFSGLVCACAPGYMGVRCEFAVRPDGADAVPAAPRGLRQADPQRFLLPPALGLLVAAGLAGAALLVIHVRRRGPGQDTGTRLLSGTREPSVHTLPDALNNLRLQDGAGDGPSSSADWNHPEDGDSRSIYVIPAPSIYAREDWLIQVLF

[6] = molecular target: rat DLL3 expressed on CHO cells (rat) (UniProt O88671); experiment: flow cytometry, 10 ug/ml AMG 757 on Low CHO rtDLL3 cells, anti-human IgG Fc-APC

Chain of rat DLL3 expressed on CHO cells (rat) (O88671 33-589): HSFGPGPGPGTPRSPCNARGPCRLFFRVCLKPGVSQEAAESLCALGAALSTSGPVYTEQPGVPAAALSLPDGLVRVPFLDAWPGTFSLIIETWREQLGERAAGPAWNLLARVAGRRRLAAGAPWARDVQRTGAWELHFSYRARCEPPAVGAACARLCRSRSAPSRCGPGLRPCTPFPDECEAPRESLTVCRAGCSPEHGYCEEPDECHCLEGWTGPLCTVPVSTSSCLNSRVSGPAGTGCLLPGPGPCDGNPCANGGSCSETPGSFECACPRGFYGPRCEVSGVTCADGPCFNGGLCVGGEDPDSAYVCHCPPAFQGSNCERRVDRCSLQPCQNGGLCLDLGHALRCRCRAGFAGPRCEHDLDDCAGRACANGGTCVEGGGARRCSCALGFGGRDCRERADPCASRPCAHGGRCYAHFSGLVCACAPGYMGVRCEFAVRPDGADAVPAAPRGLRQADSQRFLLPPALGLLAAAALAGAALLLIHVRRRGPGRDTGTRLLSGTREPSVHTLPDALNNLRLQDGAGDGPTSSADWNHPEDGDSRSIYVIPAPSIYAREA

DLL3 positive cells (%) [1]: 98.6% | DLL3 positive cells (%) [2]: 3.3% | DLL3 positive cells (%) [3]: 98.4% | DLL3 positive cells (%) [4]: 99.7% | DLL3 positive cells (%) [5]: 99.5% | DLL3 positive cells (%) [6]: 98.6%
Substance: AMG 757 (bispecific antibody)
